Test results published in patent publication US20120214741.

Biological target: VDAC of isolated rat mitochondria (liver, brain) (UniProt Q9Z2L0)
Sequence (Q9Z2L0 2-283): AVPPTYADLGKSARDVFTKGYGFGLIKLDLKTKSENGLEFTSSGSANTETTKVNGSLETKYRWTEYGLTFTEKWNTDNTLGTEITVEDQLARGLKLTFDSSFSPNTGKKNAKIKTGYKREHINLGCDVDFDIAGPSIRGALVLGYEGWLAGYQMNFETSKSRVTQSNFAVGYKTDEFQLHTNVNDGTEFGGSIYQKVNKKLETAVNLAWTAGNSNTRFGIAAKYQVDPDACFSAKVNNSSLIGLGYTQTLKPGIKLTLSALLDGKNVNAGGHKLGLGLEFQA

yeast HK
PTP opening (swelling of energized mitochondria): The failure of non-binding species of HK, such as yeast HK, or trypsin- or chymotrypsin-treated HK-I (FIG. 2D) to prevent PTP opening
